Ends that are not written are not given here.
Target: T1, CRF2R
T1 sequence (Q13324 whole entry, species assumed, looked up): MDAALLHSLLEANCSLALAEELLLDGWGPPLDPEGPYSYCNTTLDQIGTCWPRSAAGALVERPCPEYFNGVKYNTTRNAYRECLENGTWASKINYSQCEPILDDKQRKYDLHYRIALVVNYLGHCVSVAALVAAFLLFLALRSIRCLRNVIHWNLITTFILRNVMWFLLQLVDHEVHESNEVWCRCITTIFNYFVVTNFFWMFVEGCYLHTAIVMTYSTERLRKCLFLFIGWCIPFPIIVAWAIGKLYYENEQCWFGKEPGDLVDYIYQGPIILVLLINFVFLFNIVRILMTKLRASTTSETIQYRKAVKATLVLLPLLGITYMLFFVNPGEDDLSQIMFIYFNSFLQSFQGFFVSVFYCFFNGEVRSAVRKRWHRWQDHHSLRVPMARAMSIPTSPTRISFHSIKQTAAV
Assay: cell-based or functional assay

IVLSLDVPIGLLQELLEMARAEQLAQQAHSNRKLMEII-NH2 [SEQ ID NO 1]
CRF2R (Emax %): 100%
